The data set relates to ATP. The data set is described as follows: switch fluorescence ratio, 500 uM ATP over buffer (Cy3 cluster intensity, sum of 5 cycles each) (fold (ratio)); higher = stronger signal-on switching upon ATP binding; sequences stand for … in TCGTCGGCAGCGTCAGATGTGTATAAGAGACAGTTTTTTTTTTTTTTTTTTTTTTTTT…TC. The note with it: aptamer strand: ATP DNA aptamer (quencher-CACCTGGGGGAGTATTGCGGAGGAAGG + anchor), 100 nM annealed; ATP concentration: 500 uM. In short, it runs like this: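 Five buffer/ATP imaging cycles were run on Cy3-labelled switching-strand clusters on a modified Illumina MiSeq flow-cell, with NaOH stripping and re-annealing between cycles. In each cycle, clusters annealed to 100 nM quencher-labelled ATP aptamer were imaged in selection buffer, then after 15 min with 500 uM ATP at 22 °C. Per cluster, the fluorescence ratio is summed target-cycle over summed buffer-cycle Cy3 intensity, averaged per switch-domain sequence. Only clusters within 100-1000 RFU were kept.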

Drawing on the supplement of paper PMC10126150, this text covers switch fluorescence ratio for 120 sequences.

± gives the standard deviation of the averaged measurements.
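Further: ATP exposure 15 min at 22 °C before imaging.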

Regarding TGTCGTAATT, the switch fluorescence ratio was 1 ± 0.011.

Take TGTCGTGGGA: the switch fluorescence ratio came out at 1.01 ± 0.038.

On to TGTCTATGGG, for which the switch fluorescence ratio came to 0.988 ± 0.023.

Turning to TGTCTCTACG, the switch fluorescence ratio came to 1.021 ± 0.01.

Regarding TGTCTGGGGT, the switch fluorescence ratio came out at 1 ± 0.019.

With TGTCTTTTGA, the switch fluorescence ratio is 1.003 ± 0.0059.

On to TGTGAACAGT, for which the switch fluorescence ratio amounted to 0.975 ± 0.044.

With TGTGAACGTA, the switch fluorescence ratio amounted to 1.01 ± 0.052.

For TGTGAAGAAA, the switch fluorescence ratio is 0.977 ± 0.06.

As for TGTGAATAGG, the switch fluorescence ratio stood at 1.02 ± 0.065.

Consider TGTGACTGCC, for which the switch fluorescence ratio amounted to 1.04 ± 0.055.

Regarding TGTGAGCTTT, the switch fluorescence ratio is 0.975 ± 0.03.

As for TGTGAGGGA, the switch fluorescence ratio is 1 ± 0.029.

On to TGTGAGTCGG, for which the switch fluorescence ratio stood at 0.948 ± 0.03.

As for TGTGATAATG, the switch fluorescence ratio came to 0.9831 ± 0.0017.

For TGTGATGTCA, the switch fluorescence ratio came to 1.01 ± 0.016.

Turning to TGTGATTCTA, the switch fluorescence ratio worked out at 0.972 ± 0.017.

As for TGTGATTTAC, the switch fluorescence ratio was determined as 1.05 ± 0.011.

Take TGTGCCGCGC: the switch fluorescence ratio was 1.06 ± 0.07.

As for TGTGCCTGCT, the switch fluorescence ratio is 1 ± 0.043.

Regarding TGTGCTAGGG, the switch fluorescence ratio amounted to 0.98 ± 0.028.

Take TGTGCTATGG: the switch fluorescence ratio was 1.01 ± 0.02.

For TGTGCTATGT, the switch fluorescence ratio turned out to be 0.995 ± 0.028.

As for TGTGGAACGT, the switch fluorescence ratio was determined as 0.9813 ± 0.0082.

For the sequence TGTGGAAGGA, the switch fluorescence ratio stood at 0.9862 ± 0.0039.

On to TGTGGAAGGG, for which the switch fluorescence ratio amounted to 0.981 ± 0.019.

In the case of TGTGGAGAAG, the switch fluorescence ratio is 0.974 ± 0.025.

TGTGGCACTT: the switch fluorescence ratio stood at 0.998 ± 0.022.

Turning to TGTGGCTTCC, the switch fluorescence ratio is 2.25 ± 0.099.

Take TGTGGGAGAG: the switch fluorescence ratio was found to be 0.973 ± 0.038.

On to TGTGGGAGGC, for which the switch fluorescence ratio is 1.04 ± 0.018.

As to TGTGGGGAGT, the switch fluorescence ratio amounted to 0.952 ± 0.019.

In the case of TGTGGGGATA, the switch fluorescence ratio stood at 0.9904 ± 0.0011.

TGTGGGGCAG: the switch fluorescence ratio stood at 0.968 ± 0.03.

On to TGTGGGGCTT, for which the switch fluorescence ratio was 1.01 ± 0.035.

For TGTGGGGGG, the switch fluorescence ratio was found to be 0.951 ± 0.025.

On to TGTGGGTTTA, for which the switch fluorescence ratio came out at 0.988 ± 0.033.

Turning to TGTGGTAAGG, the switch fluorescence ratio came out at 0.98472 ± 0.0006.

As for TGTGGTCCAA, the switch fluorescence ratio turned out to be 0.9855 ± 0.0036.

Turning to TGTGGTCGGG, the switch fluorescence ratio came out at 0.993 ± 0.038.

TGTGGTGGCA: the switch fluorescence ratio worked out at 1 ± 0.058.

On to TGTGGTGGGA, for which the switch fluorescence ratio was 0.98 ± 0.02.

Consider TGTGGTGTGT, for which the switch fluorescence ratio was determined as 1 ± 0.03.

TGTGGTTACA: the switch fluorescence ratio amounted to 0.989 ± 0.025.

TGTGGTTATT: the switch fluorescence ratio turned out to be 0.991 ± 0.025.

TGTGTAATTT: the switch fluorescence ratio was 0.999 ± 0.012.

Turning to TGTGTCAGAC, the switch fluorescence ratio stood at 1.01 ± 0.03.

As for TGTGTCAGGG, the switch fluorescence ratio is 1.01 ± 0.022.

For the sequence TGTGTCAGGT, the switch fluorescence ratio was 0.997 ± 0.05.

In the case of TGTGTGAAGT, the switch fluorescence ratio came out at 1.01 ± 0.059.

As for TGTGTGATTC, the switch fluorescence ratio was 1.3 ± 0.49.

In the case of TGTGTGGGGG, the switch fluorescence ratio was 1.01 ± 0.031.

As for TGTGTGTGGT, the switch fluorescence ratio worked out at 1.006 ± 0.0062.

Take TGTGTTAAGA: the switch fluorescence ratio was found to be 0.9898 ± 0.0095.

Consider TGTGTTAGAA, for which the switch fluorescence ratio was 1.01 ± 0.015.

As to TGTGTTATGG, the switch fluorescence ratio came out at 0.968 ± 0.049.

For TGTGTTCTGG, the switch fluorescence ratio came to 0.986 ± 0.011.

Turning to TGTGTTTAAA, the switch fluorescence ratio amounted to 0.967 ± 0.021.

With TGTGTTTTGT, the switch fluorescence ratio stood at 0.979 ± 0.02.

For TGTTAAAAAG, the switch fluorescence ratio was determined as 0.991 ± 0.013.

Take TGTTAAGGGC: the switch fluorescence ratio came to 1 ± 0.039.

TGTTACATGT: the switch fluorescence ratio was found to be 1.04 ± 0.041.

With TGTTAGAGGG, the switch fluorescence ratio is 1.01 ± 0.063.

Take TGTTAGATAG: the switch fluorescence ratio worked out at 1 ± 0.025.

Take TGTTAGGC: the switch fluorescence ratio was found to be 1.01 ± 0.05.

As to TGTTAGGGCT, the switch fluorescence ratio stood at 0.918 ± 0.021.

In the case of TGTTAGGGGA, the switch fluorescence ratio worked out at 1.01 ± 0.02.

With TGTTAGTCCC, the switch fluorescence ratio came out at 0.9897 ± 0.0022.

For the sequence TGTTAGTCGT, the switch fluorescence ratio was determined as 1.013 ± 0.0091.

Consider TGTTAGTGGG, for which the switch fluorescence ratio worked out at 1.02 ± 0.032.

Take TGTTATCAGG: the switch fluorescence ratio is 1.01 ± 0.038.

As to TGTTATTACC, the switch fluorescence ratio stood at 1 ± 0.013.

As for TGTTCCGTCT, the switch fluorescence ratio worked out at 0.9732 ± 0.0095.

Consider TGTTCGAGGC, for which the switch fluorescence ratio is 1.03 ± 0.013.

TGTTCGGAAA: the switch fluorescence ratio was found to be 1.01 ± 0.014.

Consider TGTTCTAGTA, for which the switch fluorescence ratio is 1.27 ± 0.45.

In the case of TGTTCTTCCG, the switch fluorescence ratio came out at 1.23 ± 0.1.

Turning to TGTTCTTGGG, the switch fluorescence ratio came to 0.985 ± 0.026.

Consider TGTTGAGCAA, for which the switch fluorescence ratio came out at 1.6 ± 0.013.

For TGTTGATAGC, the switch fluorescence ratio came to 0.992 ± 0.037.

Regarding TGTTGATAGT, the switch fluorescence ratio stood at 1 ± 0.023.

Turning to TGTTGATGGT, the switch fluorescence ratio was found to be 0.976 ± 0.031.

On to TGTTGATTTT, for which the switch fluorescence ratio came out at 1.03 ± 0.043.

With TGTTGCCCCT, the switch fluorescence ratio worked out at 1.02 ± 0.051.

In the case of TGTTGCCGAT, the switch fluorescence ratio was found to be 0.986 ± 0.019.

Consider TGTTGCTAGG, for which the switch fluorescence ratio was found to be 0.992 ± 0.031.

Turning to TGTTGGGGGA, the switch fluorescence ratio is 0.979 ± 0.03.

Consider TGTTGGTCTG, for which the switch fluorescence ratio worked out at 0.978 ± 0.031.

For TGTTGGTCTT, the switch fluorescence ratio came to 0.952 ± 0.032.

Consider TGTTGGTGGC, for which the switch fluorescence ratio was 1.02 ± 0.071.

Consider TGTTGGTTGT, for which the switch fluorescence ratio worked out at 0.9935 ± 0.0067.

As to TGTTGTAGGG, the switch fluorescence ratio came out at 1.02 ± 0.02.

As to TGTTGTAGTG, the switch fluorescence ratio is 0.973 ± 0.017.

Take TGTTGTGTTA: the switch fluorescence ratio stood at 0.9965 ± 5.6e-06.

As to TGTTGTTTAC, the switch fluorescence ratio came out at 1.0216 ± 0.00012.

TGTTTAAGAC: the switch fluorescence ratio worked out at 1.05 ± 0.092.

Consider TGTTTACACT, for which the switch fluorescence ratio was determined as 1.01 ± 0.051.

As to TGTTTACGGT, the switch fluorescence ratio stood at 0.983 ± 0.032.

TGTTTAGAAA: the switch fluorescence ratio stood at 1.01 ± 0.014.

As for TGTTTAGGGT, the switch fluorescence ratio turned out to be 0.997 ± 0.029.

Turning to TGTTTATGGG, the switch fluorescence ratio was 1.01 ± 0.033.

Turning to TGTTTATTCG, the switch fluorescence ratio was determined as 0.97 ± 0.034.

As to TGTTTCATGC, the switch fluorescence ratio came out at 1.07 ± 0.16.

In the case of TGTTTCATTG, the switch fluorescence ratio came to 0.976 ± 0.018.

Take TGTTTCCTTT: the switch fluorescence ratio came out at 1 ± 0.019.

As for TGTTTCGTGT, the switch fluorescence ratio came to 0.982 ± 0.032.

For the sequence TGTTTCTAAT, the switch fluorescence ratio came out at 0.999 ± 0.02.

In the case of TGTTTCTGGG, the switch fluorescence ratio came out at 0.999 ± 0.05.

TGTTTGAAGC: the switch fluorescence ratio was determined as 0.9679 ± 0.0096.

As for TGTTTGACGT, the switch fluorescence ratio is 1.03 ± 0.014.

Consider TGTTTGAGGG, for which the switch fluorescence ratio was found to be 1.02 ± 0.024.

On to TGTTTGAGTT, for which the switch fluorescence ratio worked out at 0.987 ± 0.039.

In the case of TGTTTGCTGT, the switch fluorescence ratio turned out to be 1.03 ± 0.074.

As for TGTTTGCTTG, the switch fluorescence ratio came to 0.993 ± 0.021.

As for TGTTTGGAAG, the switch fluorescence ratio amounted to 1.05 ± 0.056.

TGTTTGGGCT: the switch fluorescence ratio is 1.02 ± 0.041.

TGTTTGGGTT: the switch fluorescence ratio came out at 0.978 ± 0.012.

For the sequence TGTTTTAAAG, the switch fluorescence ratio was 1.01 ± 0.061.

For TGTTTTACTA, the switch fluorescence ratio was determined as 0.986 ± 0.031.

As for TGTTTTATAT, the switch fluorescence ratio is 1.01 ± 0.021.
